# Results published in the supplement of paper PMC9112550, “Optimization of the antimicrobial peptide Bac7 by deep mutational scanning” (BMC Biology, 2022).
# System: Escherichia coli TOP10
# Assay: shrunken log2 fold change of peptide-encoding DNA abundance (4.5 h post-induction vs induction); higher = less antimicrobial activity (less host growth inhibition)
# Conditions: time post-induction: 4.5 h; library: site-saturation at positions 5, 18, 19, 20
# 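Note: peptides expressed intracellularly from a pBAD plasmid library in pooled LB shake-flask culture, induced with 0.3% L-arabinose, DNA abundance read by NGS, three biological replicates, DESeq2 with apeglm shrinkage.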
row,Sequence,shrunken log2 fold change
1,RRIRMRPPRLPRPRPRPQAFPRP,0.0522
2,RRIRMRPPRLPRPRPRPQCVPRP,0.039
3,RRIRMRPPRLPRPRPRPQDEPRP,-0.0393
4,RRIRMRPPRLPRPRPRPQFMPRP,-0.241
5,RRIRMRPPRLPRPRPRPQGLPRP,0.0389
6,RRIRMRPPRLPRPRPRPQHEPRP,0.212
7,RRIRMRPPRLPRPRPRPQICPRP,0.058
8,RRIRMRPPRLPRPRPRPQIFPRP,-0.0615
9,RRIRMRPPRLPRPRPRPQKHPRP,0.159
10,RRIRMRPPRLPRPRPRPQLIPRP,-0.0368
11,RRIRMRPPRLPRPRPRPQLKPRP,1.42
12,RRIRMRPPRLPRPRPRPQLVPRP,0.00959
13,RRIRMRPPRLPRPRPRPQMPPRP,0.0529
14,RRIRMRPPRLPRPRPRPQMTPRP,1.2
15,RRIRMRPPRLPRPRPRPQNFPRP,0.0982
16,RRIRMRPPRLPRPRPRPQPRPRP,1.22
17,RRIRMRPPRLPRPRPRPQRLPRP,0.294
18,RRIRMRPPRLPRPRPRPQRRPRP,0.799
19,RRIRMRPPRLPRPRPRPQSQPRP,0.226
20,RRIRMRPPRLPRPRPRPQTCPRP,0.0193
21,RRIRMRPPRLPRPRPRPQVDPRP,-0.00893
22,RRIRMRPPRLPRPRPRPQVQPRP,-0.000946

row,Sequence,shrunken log2 fold change
1,RRIRMRPPRLPRPRPRPQVRPRP,-0.0122
2,RRIRMRPPRLPRPRPRPQYWPRP,-0.194
3,RRIRMRPPRLPRPRPRPRAQPRP,0.232
4,RRIRMRPPRLPRPRPRPRCDPRP,0.397
5,RRIRMRPPRLPRPRPRPRDKPRP,0.0704
6,RRIRMRPPRLPRPRPRPRDPPRP,0.705
7,RRIRMRPPRLPRPRPRPRERPRP,0.623
8,RRIRMRPPRLPRPRPRPREWPRP,-0.0018
9,RRIRMRPPRLPRPRPRPRGKPRP,0.97
10,RRIRMRPPRLPRPRPRPRGLPRP,0.727
11,RRIRMRPPRLPRPRPRPRKCPRP,0.0129
12,RRIRMRPPRLPRPRPRPRKDPRP,0.61
13,RRIRMRPPRLPRPRPRPRLEPRP,0.113
14,RRIRMRPPRLPRPRPRPRLYPRP,0.212
15,RRIRMRPPRLPRPRPRPRMMPRP,0.476
16,RRIRMRPPRLPRPRPRPRMRPRP,1.41
17,RRIRMRPPRLPRPRPRPRNTPRP,0.354
18,RRIRMRPPRLPRPRPRPRPYPRP,0.126
19,RRIRMRPPRLPRPRPRPRQCPRP,0.594
20,RRIRMRPPRLPRPRPRPRQPPRP,0.805
21,RRIRMRPPRLPRPRPRPRSIPRP,0.667
22,RRIRMRPPRLPRPRPRPRSMPRP,-0.00173

row,Sequence,shrunken log2 fold change
1,RRIRMRPPRLPRPRPRPRSSPRP,0.923
2,RRIRMRPPRLPRPRPRPRSVPRP,0.871
3,RRIRMRPPRLPRPRPRPRTMPRP,0.926
4,RRIRMRPPRLPRPRPRPRTNPRP,0.295
5,RRIRMRPPRLPRPRPRPRVIPRP,0.477
6,RRIRMRPPRLPRPRPRPRYKPRP,0.104
7,RRIRMRPPRLPRPRPRPSAVPRP,1.16
8,RRIRMRPPRLPRPRPRPSDWPRP,0.998
9,RRIRMRPPRLPRPRPRPSEMPRP,0.185
10,RRIRMRPPRLPRPRPRPSEQPRP,-0.0153
11,RRIRMRPPRLPRPRPRPSEVPRP,0.159
12,RRIRMRPPRLPRPRPRPSFSPRP,-0.176
13,RRIRMRPPRLPRPRPRPSGFPRP,0.411
14,RRIRMRPPRLPRPRPRPSGIPRP,0.0258
15,RRIRMRPPRLPRPRPRPSGKPRP,0.222
16,RRIRMRPPRLPRPRPRPSIFPRP,0.00177
17,RRIRMRPPRLPRPRPRPSIIPRP,0.0973
18,RRIRMRPPRLPRPRPRPSILPRP,0.0568
19,RRIRMRPPRLPRPRPRPSINPRP,0.0424
20,RRIRMRPPRLPRPRPRPSIRPRP,0.0426
21,RRIRMRPPRLPRPRPRPSIYPRP,-0.726
22,RRIRMRPPRLPRPRPRPSLFPRP,0.136

row,Sequence,shrunken log2 fold change
1,RRIRMRPPRLPRPRPRPSPQPRP,0.716
2,RRIRMRPPRLPRPRPRPSPTPRP,1.15
3,RRIRMRPPRLPRPRPRPSRSPRP,0.902
4,RRIRMRPPRLPRPRPRPSRTPRP,0.715
5,RRIRMRPPRLPRPRPRPSSDPRP,0.111
6,RRIRMRPPRLPRPRPRPSTPPRP,0.0303
7,RRIRMRPPRLPRPRPRPSTRPRP,0.406
8,RRIRMRPPRLPRPRPRPSTWPRP,0.081
9,RRIRMRPPRLPRPRPRPSVIPRP,-0.244
10,RRIRMRPPRLPRPRPRPSYQPRP,-0.115
11,RRIRMRPPRLPRPRPRPSYRPRP,-0.0836
12,RRIRMRPPRLPRPRPRPTAQPRP,0.819
13,RRIRMRPPRLPRPRPRPTDSPRP,0.0971
14,RRIRMRPPRLPRPRPRPTDTPRP,0.227
15,RRIRMRPPRLPRPRPRPTFKPRP,0.198
16,RRIRMRPPRLPRPRPRPTFPPRP,0.0878
17,RRIRMRPPRLPRPRPRPTHCPRP,0.34
18,RRIRMRPPRLPRPRPRPTHQPRP,0.38
19,RRIRMRPPRLPRPRPRPTKHPRP,0.17
20,RRIRMRPPRLPRPRPRPTKLPRP,0.287
21,RRIRMRPPRLPRPRPRPTLKPRP,0.501
22,RRIRMRPPRLPRPRPRPTMSPRP,-0.148

row,Sequence,shrunken log2 fold change
1,RRIRMRPPRLPRPRPRPTMVPRP,0.263
2,RRIRMRPPRLPRPRPRPTPTPRP,2
3,RRIRMRPPRLPRPRPRPTRHPRP,0.889
4,RRIRMRPPRLPRPRPRPTSPPRP,0.278
5,RRIRMRPPRLPRPRPRPTTTPRP,0.276
6,RRIRMRPPRLPRPRPRPTVCPRP,0.53
7,RRIRMRPPRLPRPRPRPTYEPRP,-0.16
8,RRIRMRPPRLPRPRPRPTYKPRP,-0.0666
9,RRIRMRPPRLPRPRPRPVADPRP,3
10,RRIRMRPPRLPRPRPRPVCRPRP,1.48
11,RRIRMRPPRLPRPRPRPVCYPRP,-0.21
12,RRIRMRPPRLPRPRPRPVDEPRP,-0.00101
13,RRIRMRPPRLPRPRPRPVFIPRP,-0.137
14,RRIRMRPPRLPRPRPRPVFTPRP,0.128
15,RRIRMRPPRLPRPRPRPVFWPRP,0.884
16,RRIRMRPPRLPRPRPRPVGAPRP,1.34
17,RRIRMRPPRLPRPRPRPVGGPRP,0.961
18,RRIRMRPPRLPRPRPRPVGIPRP,0.158
19,RRIRMRPPRLPRPRPRPVGMPRP,0.366
20,RRIRMRPPRLPRPRPRPVIAPRP,0.125
21,RRIRMRPPRLPRPRPRPVIKPRP,-0.0254
